Test results from paper PMC5137435.

How the values were obtained:
Assay in all cases: fluorescence polarization
WT1 ZF2-4 Q369H (-KTS) = WT1 ZF2-4 Q369H (-KTS) (Homo sapiens, UniProt P19544-4 350-437, Q369H)
WT1 ZF2-4 Q369K (-KTS) = WT1 ZF2-4 Q369K (-KTS) (Homo sapiens, UniProt P19544-4 350-437, Q369K)
WT1 ZF2-4 Q369R (-KTS) [1] = biological target: T1, WT1 ZF2-4 Q369R (-KTS) (Homo sapiens, UniProt P19544-4 350-437, Q369R)
WT1 ZF2-4 Q369P (-KTS) = WT1 ZF2-4 Q369P (-KTS) (Homo sapiens, UniProt P19544-4 350-437, Q369P)
Egr1 three-finger domain = Egr1 three-finger domain (UniProt P18146 335-423)
WT1 ZF2-4 Q369R (-KTS) [2] = biological target: T1, WT1 ZF2-4 Q369R (-KTS); remark: listed apart in the source

B1: Fig1 oligo X=G (dsDNA)
DNA 1: AGCGTGGGGGT
DNA 2: TACCCCCACGC
modifications: 5mC at strand 1 pos 3 and strand 2 pos 9
Kd (WT1 ZF2-4 Q369H (-KTS)): < 3 nM
Kd (WT1 ZF2-4 Q369K (-KTS)): 14 nM
Kd (WT1 ZF2-4 Q369R (-KTS) [1]): 24 nM

B2: Fig1 oligo X=T (dsDNA)
DNA 1: AGCGTGGGTGT
DNA 2: TACACCCACGC
modifications: 5mC at strand 1 pos 3 and strand 2 pos 9
binding result (WT1 ZF2-4 Q369P (-KTS)): binds
binding result (Egr1 three-finger domain): binds

B3: Fig1 oligo X=A (dsDNA)
DNA 1: AGCGTGGGAGT
DNA 2: TACTCCCACGC
modifications: 5mC at strand 1 pos 3 and strand 2 pos 9
Kd (WT1 ZF2-4 Q369H (-KTS)): 8 nM
binding signal (WT1 ZF2-4 Q369R (-KTS) [2]): ~5 fold lower affinity than X=G
